From IntAct's records for PubMed 29039417

B1: BBSome complex member BBS2 (Homo sapiens), Q9BXC9 (parent)
chain: MLLPVFTLKLRHKISPRMVAIGRYDGTHPCLAAATQTGKVFIHNPHTRNQHVSASRVFQSPLESDVSLLSINQAVSCLTAGVLNPELGYDALLVGTQTNLLAYDVYNNSDLFYREVADGANAIVLGTLGDISSPLAIIGGNCALQGFNHEGSDLFWTVTGDNVNSLALCDFDGDGKKELLVGSEDFDIRVFKEDEIVAEMTETEIVTSLCPMYGSRFGYALSNGTVGVYDKTSRYWRIKSKNHAMSIHAFDLNSDGVNELITGWSNGKVDARSDRTGEVIFKDNFSSAIAGVVEGDYRMDGHIQLICCSVDGEIRGYLPGTAEMRGNLMDTSAEQDLIRELSQKKQNLLLELRNYEENAKAELASPLNEADGHRGIIPANTRLHTTLSVSLGNETQTAHTELRISTSNDTIIRAVLIFAEGIFTGESHVVHPSIHNLSSSICIPIVPPKDVPVDLHLKAFVGYRSSTQFHVFESTRQLPRFSMYALTSLDPASEPISYVNFTIAERAQRVVVWLGQNFLLPEDTHIQNAPFQVCFTSLRNGGHLHIKIKLSGEITINTDDIDLAGDIIQSMASFFAIEDLQVEADFPVYFEELRKVLVKVDEYHSVHQKLSADMADHSNLIRSLLVGAEDARLMRDMKTMKSRYMELYDLNRDLLNGYKIRCNNHTELLGNLKAVNQAIQRAGRLRVGKPKNQVITACRDAIRSNNINTLFKIMRVGTASS
partner: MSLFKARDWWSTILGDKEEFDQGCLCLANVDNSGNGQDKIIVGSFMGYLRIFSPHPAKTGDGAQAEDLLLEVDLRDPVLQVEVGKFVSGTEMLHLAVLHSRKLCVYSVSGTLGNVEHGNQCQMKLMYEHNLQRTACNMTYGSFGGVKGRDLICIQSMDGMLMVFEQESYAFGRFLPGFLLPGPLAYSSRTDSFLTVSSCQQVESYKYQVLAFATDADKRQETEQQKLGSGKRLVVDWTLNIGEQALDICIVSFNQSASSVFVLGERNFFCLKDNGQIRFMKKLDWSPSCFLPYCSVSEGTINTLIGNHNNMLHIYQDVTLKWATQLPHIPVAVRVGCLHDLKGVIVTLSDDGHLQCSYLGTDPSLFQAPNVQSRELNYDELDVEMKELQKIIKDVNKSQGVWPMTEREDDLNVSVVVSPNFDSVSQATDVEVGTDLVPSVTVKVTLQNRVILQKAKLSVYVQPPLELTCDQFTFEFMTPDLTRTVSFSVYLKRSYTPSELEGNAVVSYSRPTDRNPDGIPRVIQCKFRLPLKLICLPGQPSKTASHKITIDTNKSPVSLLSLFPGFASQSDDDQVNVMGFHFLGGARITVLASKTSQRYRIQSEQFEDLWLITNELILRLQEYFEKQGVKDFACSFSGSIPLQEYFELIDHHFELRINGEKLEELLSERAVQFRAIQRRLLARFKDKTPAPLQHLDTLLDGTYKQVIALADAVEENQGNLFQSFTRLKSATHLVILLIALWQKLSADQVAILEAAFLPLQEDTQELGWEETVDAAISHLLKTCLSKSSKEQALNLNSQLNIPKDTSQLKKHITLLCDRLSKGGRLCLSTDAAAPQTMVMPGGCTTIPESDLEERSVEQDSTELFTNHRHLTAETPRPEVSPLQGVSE

Variants of: B1
Conditions: with pthb1_human BBS9, Q3SYG4

Variant	effect of a mutation on the interaction
T524A	with no effect
V511K	with no effect
V511A	with no effect
V511E	with no effect
L519E	with no effect
L519K	with no effect
L519A	with no effect
Q508K	with no effect
Q508A	disrupting interaction strength
Q508E	with no effect
Y498K	with no effect
E522K	with no effect
E522A	with no effect
Q516K	with no effect
Q516E	with no effect
Q516A	with no effect
L520K	with no effect
L520A	with no effect
L520E	with no effect
I503E	with no effect
I503K	with no effect
I503A	with no effect
A504E	with no effect
A504K	with no effect
P521E	with no effect
P521A	with no effect

Variant	effect of a mutation on the interaction
P521K	with no effect
N500E	with no effect
N500K	with no effect
N500A	with no effect
F518L	disrupting interaction strength
F518A	with no effect
F518K	disrupting interaction strength
F518E	disrupting interaction strength
D523E	with no effect
D523K	with no effect
D523A	with no effect
N517E	with no effect
N517L	disrupting interaction strength
N517A	with no effect
N517K	with no effect
R506K	with no effect
R506E	with no effect
R506A	with no effect
G515A	with no effect
G515K	with no effect
G515C	disrupting interaction strength
G515R	disrupting interaction strength
G515E	with no effect
V512K	with no effect
V512A	with no effect
V512E	with no effect

Variant	effect of a mutation on the interaction
L514A	with no effect
L514K	disrupting interaction strength
L514E	disrupting interaction strength
A507K	with no effect
A507E	with no effect
V499E	with no effect
V499K	with no effect
V499A	with no effect
V510E	with no effect
V510A	with no effect
V510K	with no effect
F501E	disrupting interaction strength
F501K	with no effect
F501A	with no effect
W513A	disrupting interaction strength
W513K	disrupting interaction strength
E505A	with no effect
E505K	with no effect
R509K	with no effect
R509E	with no effect
R509A	with no effect
T502E	with no effect
T502K	with no effect
T502A	with no effect

Now from value to variant:

effect of a mutation on the interaction	Variant
with no effect	F531E
with no effect	F531A
with no effect	F531K
with no effect	T524K
with no effect	T524E
with no effect	G541A
with no effect	G541K
with no effect	G541E
with no effect	L550K
with no effect	L550A
with no effect	L550E
with no effect	K549A
with no effect	K549E
with no effect	Q527K
with no effect	Q527A
with no effect	Q527E
with no effect	G542E
with no effect	G542K
with no effect	G542A
with no effect	T555A
disrupting interaction strength	T555H
with no effect	T555E
with no effect	T555K
disrupting interaction strength	T555P
with no effect	H543K

effect of a mutation on the interaction	Variant
with no effect	H543A
with no effect	H543E
disrupting interaction strength	F535K
disrupting interaction strength	F535E
with no effect	F535A
with no effect	S537A
with no effect	S537K
disrupting interaction strength	S537F
with no effect	S537E
with no effect	N528E
with no effect	N528A
with no effect	N528K
with no effect	Q532A
with no effect	Q532K
with no effect	Q532E
with no effect	A529K
with no effect	A529E
with no effect	E553K
with no effect	E553A
with no effect	P530E
with no effect	P530K
with no effect	P530A
with no effect	S551A
with no effect	S551K
with no effect	S551E

effect of a mutation on the interaction	Variant
disrupting interaction strength	L544S
disrupting interaction strength	L544A
with no effect	L544K
disrupting interaction strength	L544E
with no effect	R539K
with no effect	R539A
with no effect	R539E
with no effect	T536A
with no effect	T536K
with no effect	T536E
with no effect	H545K
with no effect	H545A
with no effect	H545E
with no effect	V533K
with no effect	V533A
disrupting interaction strength	V533E
with no effect	I556A
with no effect	I556K
with no effect	I556E
with no effect	I546A
with no effect	I546K
disrupting interaction strength	I546E
with no effect	H525A
with no effect	H525K
with no effect	H525E

effect of a mutation on the interaction	Variant
with no effect	G552K
with no effect	G552A
disrupting interaction strength	G552E
with no effect	I554K
disrupting interaction strength	I554G
with no effect	I554E
with no effect	I554A
disrupting interaction strength	N540A
with no effect	N540K
with no effect	N540E
with no effect	L538A
with no effect	L538K
with no effect	L538E
with no effect	K547E
with no effect	K547A
with no effect	C534E
with no effect	C534K
with no effect	C534A
with no effect	I548E
with no effect	I548A
with no effect	I548K
with no effect	I526K
with no effect	I526A
with no effect	I526E
